# Columns and labels:
# [1] = target: T1, HCT116 cells overexpressing human ROR1 (HCT116-hRor1) (Homo sapiens, UniProt Q01973); assay: FACS cell binding, affinity maturation leads; settings: Table 11 (SP34 light chain)
# T1 construct: expressed in transfected cells; host or cells: HCT116
# Description: Ntera-2, MDA-MB-231, MCF7, HCT116 and Mino cells were obtained from ATCC. HCT116-hRor1-D02 clone was generated by transfecting HCT116 cells with a plasmid containing human Ror1 cDNA sequence and selected for highest stable expression of hRor1 on the cell surface. MDA-MB-231, MCF7, HCT116 and HCT116-Ror1 cell were maintained in Ham's F-12 high glucose DMEM (50-50) (Cellgro-Mediatech; Manassas, VA) supplemented with 10% heat-inactivated fetal bovine serum (Hyclone; Thermo Scientific; Waltham, MA), 1% Penicillin/Streptomycin (Cellgro-Mediatech; Manassas, VA) and 2 mmol/L-glutamax (Life Technology; Carlsbad, CA). Mino cells were maintained in RPMI-1640 medium (Cellgro-Mediatech; Manassas, VA) supplemented with 20% heat-inactivated fetal bovine serum (Hyclone; Thermo Scientific; Waltham, MA), 1% Penicillin/Streptomycin (Cellgro-Mediatech; Manassas, VA) and 2 mmol/L-glutamax (Life Technology; Carlsbad, CA).
# Variants with expression levels >250 nM were tested in a fluorescence-activated cell sorting (FACS) cell-binding assay. […]
# A mix of ROR1 positive and negative cells was prepared as follows. […] Cells were then washed 2× with FACS buffer and fixed for 10 minutes in 200 μl PBS with 2% PFA prior to fluorescence detection. […] Mean Fluorescence Intensity of ROR1 antibody binding was analyzed using FlowJo® software (Tree Star, Inc.).
# [2] = Differential scanning fluorimetry (protein thermal shift; TM1 Fc, TM2 Fab); assay type: physicochemical; settings: melting temperature of the Fab domain; Table 11
# Protocol: A protein thermal shift assay was carried out by mixing the protein to be assayed with an environmentally sensitive dye (SYPRO Orange, Life Technologies Cat #S-6650) in a phosphate buffered solution (PBS), and monitoring the fluorescence of the mixture in real time as it underwent controlled thermal denaturation. Protein solutions between 0.2-2 mg/mL were mixed at a 1-1 volumetric ratio with a 1-500 PBS-diluted solution of SYPRO Orange (SYPRO Orange stock dye is 5000× in DMSO). 10 μL aliquots of the protein-dye mixture were dispensed in quadruplicate in a 384-well microplate (Bio-Rad Cat #MSP-3852), and the plate was sealed with an optically clear sealing film (Bio-Rad Cat #MSB-1001) and placed in a 384-well plate real-time thermocycler (Bio-Rad CFX384 Real Time System). The protein-dye mixture was heated from 25° C. to 95° C., at increments of 0.1° C. per cycle (˜1.5° C. per minute), allowing 3 seconds of equilibration at each temperature before taking a fluorescence measurement. At the end of the experiment, the transition melting temperatures (TM1 and TM2) were determined using the Bio-Rad CFX manager software. TM1 represents the melting temperature of the Fc domain. TM2 represents the melting temperature of the Fab domain.
# For the thermal stability of an antibody, the first melting peak (Tm1) coincides with the unfolding of the CH2 domain (FC stability), while the second melting peak (Tm2) occurs upon unfolding of the Fab domain.
# human ROR1-Fz = target: T2, human ROR1-Fz (Homo sapiens, UniProt Q01973); assay: Biacore off-rate and kinetic analysis, ROR1 frizzled domain; assay type: binding; settings: Table 11 (SP34 light chain)
# T2 construct: Frizzled (Fz, residues 165-305); HIS6 (C); purchased Acro Biosystems; host or cells: HEK293
# Protocol: Anti-Fc polyclonal antibodies were immobilized onto a CM5 chip (GE Life Sciences) using amine coupling chemistry (from Amine Coupling Kit, GE Life Sciences). The immobilization steps were carried out at a flow rate of 25 μL/min in 1×HBS-EP+ buffer (GE Life Sciences; 10× Stock diluted before use). The sensor surfaces were activated for 7 min with a mixture of NHS (0.05 M) and EDC (0.2 M). The Anti-Fc antibodies were injected over all 4 flow cells at a concentration of 25 ug/ml in 10 mM sodium acetate, pH 4.5, for 7 min. Ethanolamine (1 M, pH 8.5) was injected for 7 min to block any remaining activated groups. An average of 12,000 response units (RU) of capture antibody was immobilized on each flow cell.
# Off-rate and kinetic binding experiments were performed at 25° C. using 1×HBS-EP+ buffer. Test and control antibodies were injected over the anti-Fc surface at concentrations of 5-10 μg/mL for 12 seconds at a flow rate of 10 μL/min on flow cells 2, 3 and 4, followed by a buffer wash for 30 seconds at the same flow rate. Kinetic characterization of antibody samples was carried out with a range of antigen concentrations from 1-100 nM and 1 injection of 0 nM antigen (for example, 100, 50, 25, 6.25, 1.56 and 0 nM). After capturing ligand (antibody) on the anti-Fc surface, the analyte (hROR1, Fz or Kr domains, Acro Biosystems, Delaware) was bound for 180 seconds, followed by a 600 second dissociation phase at a flow rate of 50 μL/min. Between each ligand capture and analyte binding cycle, regeneration was carried out using 2 injections of 10 mM Glycine pH 2.0 for 30 seconds at 30 μL/min, followed by a 30 second buffer wash step.
# The data was fit with the Biacore T200 Evaluation software, using a 1-1 Langmuir binding model. KD (affinity, nM) was determined as a ratio of the kinetic rate constants calculated from the fits of the association and dissociation phases.
# For anti-CD3-LC-containing IgGs that had detectable ROR1-binding in ELISA (1944-A07 and 1987-C05 variants), those antibodies were further tested for binding by surface plasmon resonance (SPR). Binding kinetics were assessed to the ROR1-frizzled domain (hROR1-Fz) or the ROR1-extracellular domain (hROR1) for 1944-A07 and 1987-C05 variants, respectively. Briefly, anti-ROR1 antibodies were captured via anti-human Fc polyclonal antibodies immobilized to a CM5 chip, and ROR1 recombinant proteins were flowed across the surface to assess binding kinetics. hROR1 or hROR1-Fz domain (Acro Biosystems, Delaware) binding was tested at 100, 50, 25, 6.25, 1.5625 nM. The data was fit with the Biacore™ T200 Evaluation software, using a 1-1 Langmuir binding model. KD (affinity, nM) was determined as a ratio of the kinetic rate constants calculated from the fits of the association and dissociation phases.
molecule,measurement,setting,value
"SRP2196-B07 (antibody, V domains shown) VH: EVQLVESGGGLVQPGGSLRLSCAASGFNITGYHIHWVRQAPGEGLEWVGYISPNSGATYYADSVEGRFTISADTSKNTAYLQMHSLRAEDTAVYYCTRDSRRYVRGWDYWGQGTLVTVSS VL: QAVVTQESALTTSPGETVTLTCRSSTGAVTTSNYANWVQEKPDHLFTGLIGGTNKRAPGVPARFSGSLIGDKAALTITGAQTEDEAIYFCALWYSNLWVFGGGTKLTVL",HCT 116-hROR1 Binding Bmax,[1],15139 MFI
same,TM2,[2],69 °C
same,Biacore human ROR1-Fz ka,human ROR1-Fz,185000 M⁻¹ s⁻¹
same,Biacore human ROR1-Fz kd,human ROR1-Fz,0.000269 s⁻¹

# Source: patent US12226490B2, “Anti-ROR1 antibody conjugates, compositions comprising anti ROR1 antibody conjugates, and methods of making and using anti-ROR1 antibody conjugates preliminary class” (Sutro Biopharma, Inc., priority 2022, dated 2025)
